Laboratory results: paper PMC9312469

Legend:
[1] = target: PH-YFP (isolated PLCδ1 PH domain linked to a yellow fluorescent protein variant that lacks the A206K mutation) (UniProt P51178); assay: fluorescence fluctuation spectroscopy (photon counting histogram); PH-YFP bound to POPC:PI(4,5)P2 (95:5) GUVs, 20 μM Ca2+; two-brightness population model
[2] = target: PH-YFP (isolated PLCδ1 PH domain linked to a yellow fluorescent protein variant that lacks the A206K mutation) (UniProt P51178); assay: fluorescence fluctuation spectroscopy (photon counting histogram); PH-YFP bound to POPC:PI(4,5)P2 (95:5) GUVs, 50 μM Ca2+; two-brightness population model
[3] = target: PH-YFP (isolated PLCδ1 PH domain linked to a yellow fluorescent protein variant that lacks the A206K mutation) (UniProt P51178); assay: fluorescence fluctuation spectroscopy (photon counting histogram); PH-YFP bound to POPC:PI(4,5)P2 (95:5) GUVs, 100 μM Ca2+; two-brightness population model
[4] = target: PH-YFP (isolated PLCδ1 PH domain linked to a yellow fluorescent protein variant that lacks the A206K mutation) (UniProt P51178); assay: fluorescence fluctuation spectroscopy (photon counting histogram); PH-YFP bound to POPC:PI(4,5)P2 (95:5) GUVs, 5 mM EDTA (0 μM Ca2+); two-brightness population model
[5] = target: PH-YFP (isolated PLCδ1 PH domain linked to a yellow fluorescent protein variant that lacks the A206K mutation) (UniProt P51178); assay: fluorescence fluctuation spectroscopy (photon counting histogram); PH-YFP bound to POPC:PI(4,5)P2 (95:5) GUVs, in the presence of Ca2+ (20, 50 and 100 μM taken together, on average); two-brightness population model

F1 (Monomeric Population), fraction weighed by brightness [1]: 99.3%
F2 (Oligomeric Population), fraction weighed by brightness [1]: 0.7%
F1 (Monomeric Population), fraction weighed by brightness [2]: 82.5%
F2 (Oligomeric Population), fraction weighed by brightness [2]: 17.5%
F1 (Monomeric Population), fraction weighed by brightness [3]: 86.5%
F2 (Oligomeric Population), fraction weighed by brightness [3]: 13.5%
F1 (Monomeric Population), fraction weighed by brightness [4]: 71.3%
F2 (Oligomeric Population), fraction weighed by brightness [4]: 28.7%
brightness of the second population relative to the lower brightness (monomer) component [4]: 2.3 fold
stoichiometry N [4]: 2
fraction of particles in the second (oligomeric) population [5]: < 5%
Substance: PH-YFP (isolated PLCδ1 PH domain linked to a yellow fluorescent protein variant that lacks the A206K mutation) (from UniProt P51178 21-130)
